According to the nanobody polyreactivity screen of Harvey et al. (2022):

test: yeast display, Sf9 membrane polyspecificity reagent, FACS + sequencing; frameworks hold sequencing errors
Summary of the method: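 Galactose-induced (36–48 hours) yeast carrying a synthetic nanobody display library were exposed to 10% biotinylated, detergent-solubilized Sf9 membrane reagent at 4 °C for 1 hour. FACS followed streptavidin microbead enrichment, using low and high (top ~1%) gates for expression (anti-HA) and reagent binding (streptavidin). Colony PCR, MiSeq 2 × 250 sequencing and CDR-length filtering followed. Labels for polyreactivity reflect the gate of origin.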

Sequence	polyreactivity (PSR sort gate)
QVQLVESGGGLVQAGGSLRLSCAASGRIFYQNTMGWYRQAPGKERELVASISTTGGNTYYADSVKGRFTISRDNAKNTVYLQMNSLKPEDTAVYYCNAVRSVYLYGYIYGVDYWGQGTQVTVSS	low polyreactivity
QVQLVESGGGLVQAGGSLRLSCAASGRIFYRNAMGGSRQAPGKERELVAAISYSGGSTYYADSVKGRFTISRDNAKNTVYLQMNSLKPEDTAVYYCAAARDRWGNYWGQGTQVTVSS	high polyreactivity
QVQLVESGGGLVQAGGSLRLSCAASGRIFYRNAMGWYRQAPGKERELVAAINWSGGSTYYADSVKGRFTISRDNAKNTVYLQMNSLKPEDTAVYYCATGYRQGEYDYWGQGTQVTVSS	low polyreactivity
QVQLVESGGGLVQAGGSLRLSCAASGRIFYRNAMGWYRQAPGKERELVAAISSGGITNYADSVKGRFTISRDNAKNTVYLQMNSLKPEDTAVYYCNADAYRLPGYTFGYWGQGTQVTVSS	high polyreactivity
QVQLVESGGGLVQAGGSLRLSCAASGRIFYRNAMGWYRQAPGTDRELVARITSSGGTTYYADSVKGRFTISRDNAKNTVYLQMNSLQPEDTAVYYCAARSVTQRKMYYWGQGTQVTVSS	high polyreactivity
QVQLVESGGGLVQAGGSLRLSCAASGRIFYRYAMGCYRQAPGKERELVAGIRSRGGRTYYADSVKGRFTISRDNAKNTVYLQMNSLKPEDTAVYYCAARYLSGTSRYYYWGQGTQVTVSS	high polyreactivity
QVQLVESGGGLVQAGGSLRLSCAASGRIFYRYAMGWSRQAPGKERELVASITTSGDSTYYADSVKGRFTISRDNAKNTVYLQMNSLKPEDTAVYYCAARSYRGRRYDYWGQGTQVTVSS	high polyreactivity
QVQLVESGGGLVQAGGSLRLSCAASGRIFYRYAMGWYRQAPGKEMELVASITRSGITHYADSVKGRFTISRDNAKNTVYLQKNSLKPEDTEVYYCNARRGSPAPYDYWGQGTQVTVSS	high polyreactivity
QVQLVESGGGLVQAGGSLRLSCAASGRIFYRYAMGWYRQAPGKERELVAGISNSGGSTYYADSVKGRFTISRDNAKNSVYLQRNSLKPEDTAVYYCARLSTKPLPYDYWGQGTQVTVSS	high polyreactivity
QVQLVESGGGLVQAGGSLRLSCAASGRIFYRYAMGWYRQAPGKERELVASIRFSDGSTYYADSVKGRFTISRDNAKNTVYLQMNSLKPEDTALYYCAARPLRSRNGYYWGQGTQVTVSS	high polyreactivity
QVQLVESGGGLVQAGGSLRLSCAASGRIFYRYAMGWYSQAPGKESELVAAITWRGGSTSYPDSVKGRFTISRDNAKNTVYLQMNSLKPEATAVYYCAAAAYGVPWRSYLGVFKSHMDYWGQGTQVTVSS	high polyreactivity
QVQLVESGGGLVQAGGSLRLSCAASGRIFYRYARGWYRQAPGKEREFVAAITSGTSTNYADSVKGRFTISRDNAKNSLYVQRNSLKPEDTAVYYCATRYYWKYAEYDYWGQGTQVTVSS	high polyreactivity
QVQLVESGGGLVQAGGSLRLSCAASGRIFYRYDMGWYRQAPGKERELVAAISSGGNTNYADSVKGRFTISRDNAKNTVYLQMNCLKPEDTAVYYCAKRYRSYQGSSRQGNYGYWGQGTQVSVSS	high polyreactivity
QVQLVESGGGLVQAGGSLRLSCAASGRIFYSNAMGWYRQAPGKERELVAAISGSTDSTYYADSVKGRFTISRDNAKNTDYLQMNSVKPEDTAVYYCAAADYWFYYGYYLTMDFWGQGTQVTVSS	low polyreactivity
QVQLVESGGGLVQAGGSLRLSCAASGRIFYSNAMGWYRQAPGKERELVAAITTSGASTYYADSVKGRFTISRDNAKNTVYLQMNSLKPEDTSVYYCATYAVVYPFAMDYWGQGTQVTVSS	low polyreactivity
QVQLVESGGGLVQAGGSLRLSCAASGRIFYSNTMGWNRQAPGKEREMVATITSGGSTNYADSVKGRFTISRDNAKNTVYFQMNILKPEDTAVYYCAADAYATHPFRSESDYWGQGTQVTVSS	low polyreactivity
QVQLVESGGGLVQAGGSLRLSCAASGRIFYSYAMGCSRQAPGKERELVAAITRGGRTKYADSVKGRFTISRDNEKNTVYLQMNSLKPEDTAVYYCAAVKFYTEYNQYDYWGQGTQVTVSS	high polyreactivity
QVQLVESGGGLVQAGGSLRLSCAASGRIFYSYAMGWNRQAPGKESQLVARSTRGSSTYYADSVKGRLTISRDNAKKTFYVQMNSMKPEDTAVYYCAQSRYTALTNHWSHDYWGPGTQVTVSS	low polyreactivity
QVQLVESGGGLVQAGGSLRLSCAASGRIFYSYAMGWYRQAPGKDRELVAAITRTGGNTYYADSVKGRFTISRDNAKNTVYLQMNSLKPEDTAVYYCNAEYWKEHYPEIYYSWGQGTQVTVSS	low polyreactivity
QVQLVESGGGLVQAGGSLRLSCAASGRIFYSYAMGWYRQAPGKEREFVAVISSDGGSTYYADSVKGRFTISRDNAKNTVYLQMNSLKPEDTAVYYCNAEIDYDVYEYDYWGQGTQVTVSS	low polyreactivity
QVQLVESGGGLVQAGGSLRLSCAASGRIFYSYAMGWYRQAPGKERELVAAISSRTGSTYYADSVKGRFTISRDNAKNTVYLQMNSLKPEDTAVYYCAAQSGWLRYYYWGQGTLVTVSS	high polyreactivity
QVQLVESGGGLVQAGGSLRLSCAASGRIFYSYAMGWYRQAPGKERELVAAITRSVARTYYADSVKGRFTISRDNAKNTVYLQMNCLKPEDTAVYYCAADWYQWGGRYYAPRYYYWGQGTQVTVSS	high polyreactivity

Sequence	polyreactivity (PSR sort gate)
QVQLVESGGGLVQAGGSLRLSCAASGRIFYTNAMGWYRKAPGKERELVAGITCSGDSTYYADSVKGRFTISRDNAKNTVYLQMNSLKPEDTPVYYCAARWRYVLMDYWGQGNQVTVSS	low polyreactivity
QVQLVESGGGLVQAGGSLRLSCAASGRIFYTNAMGWYRQAPGKERELVATISGSGGNTYYADSVKGRFTISRDNAKNTVYLQMNSLKPEDTAVYYCAKAYYTPYGVYVLHYYWGQGTQVTVSS	high polyreactivity
QVQLVESGGGLVQAGGSLRLSCAASGRIFYTNAMGWYRQAPGKESELVAVISWGGDTTYYADSVKGRFTISRDNAKYTVYLQMNSLKPDDTADYYFNADWGPTYEIYDSWGQGTQVTVSS	low polyreactivity
QVQLVESGGGLVQAGGSLRLSCAASGRIFYTNGMGWYRQAPGKERELVAAISYNGGRTYYADSVKGRFTISRDNAKNTVYLQMNSLKPEDTAVYYCNKRGDYQFHFDYWGQGTQVTVSA	low polyreactivity
QVQLVESGGGLVQAGGSLRLSCAASGRIFYTNVMGWYRQATGKERELVAAISTGGGRTYYADSVKGRITISRDNAKNSVYLQMNSLKPEDTAVYDCAASGRYAIVWGDQYYGYYYWGQGTQVTVSS	high polyreactivity
QVQLVESGGGLVQAGGSLRLSCAASGRIFYTYAMGWYRQAPGKERELVAAIRWSSGSTFYADSVKGRFTISRDNAKNSVYLQMNSLKPEDTAVYYCATEYYPQYQSTGWYDYWGQGTQVTVSS	low polyreactivity
QVQLVESGGGLVQAGGSLRLSCAASGRIFYTYAMGWYRQSPGKERELVAAISWGGGRTYYADSVKGRFTISRDNAKNTVYLQMNSLKPEDTAVYYCNAVSLKFTRKYDYWGQGTQVTVSS	high polyreactivity
QVQLVESGGGLVQAGGSLRLSCAASGRIFYTYVMGWYRQAPGKERELVAAITRRGGSTNYADSVKGRFTISRDNAKNTVYLQMNSLKPEDTAVYYCAAGTYKGSSVYGMDYWGQGTQVTVSS	high polyreactivity
QVQLVESGGGLVQAGGSLRLSCAASGRIFYVYAMGWYRAPGKERELVASISYIGGSTYYADSVKGRFTISRDNAKNTVYLQMNSLIPEDTAVYYCATDYYGYTVSFLVASWPDDYWGQGTQVTVSS	low polyreactivity
QVQLVESGGGLVQAGGSLRLSCAASGRIFYVYAMGWYRPAPGKERELVAAITQSGGRTYYADSVKGRFTISRDNAKNTVYLQMNSLKPEDTAVYYCNADGDDLDWNYYLVQYDYWGQGTQVTVSS	low polyreactivity
QVQLVESGGGLVQAGGSLRLSCAASGRIFYVYAMGWYRQAPGKERELVAAISRGGSTNYADSVKGRFTISRDNAKNTVYLQMNSLKPEDTAVYYCAASSLPHYSYRHSYLYEYWGQGTQVTVSS	low polyreactivity
QVQLVESGGGLVQAGGSLRLSCAASGRIFYVYTLGWYRQAPGKERELVAAITSGGSTNYADSVKGRFTISRDNAKNTVYLQMNSLKPEDTAVYFCAKKAWVIYNRKFSSGYDYWGQGTQVTVSS	low polyreactivity
QVQLVESGGGLVQAGGSLRLSCAASGRIFYVYTMGWYRQARGKERELVAAISWSGGSTHYADSVKGRFTISRDNAKNTVYLQMNSLKPEDTAVYYCNKGVLSRVAFEYWGQGTQVTVSS	low polyreactivity
QVQLVESGGGLVQAGGSLRLSCAASGRIFYWYAMGWYRKAPGKERELVAAIIWSGGSSYYADSVKGRFTISRDNAKNTVYLQMNSLKPEDTAVYYSAADRILEMGYWGQGTQVTVSS	low polyreactivity
QVQLVESGGGLVQAGGSLRLSCAASGRIFYWYARGWYRQAPGKERELVASISRRAGSTYYADSVKGRFTISRDNAKNTVYLQMHSLKPEDTAVYYCAAVGRFDRVFDYDYWGQGTQVTVSS	high polyreactivity
QVQLVESGGGLVQAGGSLRLSCAASGRIFYWYVMGWYRQAPGKERELVASISSGGGTNYADSVKGRFTISRDNAKNTVYLQMNSLKPEDTAVYYCAARAYPYYWTGQKQSRFGYWGQGTQVTVSS	high polyreactivity
QVQLVESGGGLVQAGGSLRLSCAASGRIFYYNAMGWFRQAPGQERELVAAITSGGSTNYADSVKGRFTISRDNAKNTVYLQMNSLTPEDTAVYYCNARRYGSPRSEVHYDYWGQGTQVTVSS	low polyreactivity
QVQLVESGGGLVQAGGSLRLSCAASGRIFYYNAMGWYRPAPGKVRELVAVMTGGGSTNYADSVKGRFTISRDNAKNTVYLQMNSLKPEDTAVYYCAARRAWGTKYHGYDYWGQGTQVTVSS	low polyreactivity
QVQLVESGGGLVQAGGSLRLSCAASGRIFYYNAMGWYRQAPGKERDLVAAITYSGTSTYYADSVKGRFTISRDNAKNTVYLQINSLKPEDTAVYYCAVDSTDQAPPTYDYWGQGTQVTVSS	low polyreactivity
QVQLVESGGGLVQAGGSLRLSCAASGRIFYYNAMGWYRQAPGKERELVAAISTRGTSTYYADSVKGRFTISRDNAKNTVYLQMNSLKPEDTAVYYCNRASGNWQSYLRYDYWGQGTQVTVSS	low polyreactivity
QVQLVESGGGLVQAGGSLRLSCAASGRIFYYNGMGWYRQAPGKERELVAAISSRGGSTYYADSVKGRFTISRDNAKNTVYLQMNSLKPEDTAVYYCAATLSDRYSWRPYGMYYWGQGTQVTVSS	high polyreactivity
